Results reported in US20030175837A1.

B1: chimeric mouse/human IgG1 anti-platelet mAb (7E3) (antibody, INN chains, looked up, V domains shown)
VH: EVQLQQSGTVLARPGASVKMSCEASGYTFTNYWMHWVKQRPGQGLEWIGAIYPGNSDTSYIQKFKGKAKLTAVTSTTSVYMELSSLTNEDSAVYYCTLYDGYYVFAYWGQGTLVTVSA
VL: EIVLTQSPVTLSVTPGDSVSLSCRASRDISNNLHWFQQTSHESPRLLIKYASQSMSGIPSRFSGSGSGTDFTLSINSVETEDFGMYFCQQTNSWPYTFGGGTKLEIK
modifications: chimeric IgG1

What was measured:
[1] = target: T1, human lymphotoxin (TNFβ) (human) (UniProt P01374); assay: cell-based or functional assay
T1 sequence (looked up): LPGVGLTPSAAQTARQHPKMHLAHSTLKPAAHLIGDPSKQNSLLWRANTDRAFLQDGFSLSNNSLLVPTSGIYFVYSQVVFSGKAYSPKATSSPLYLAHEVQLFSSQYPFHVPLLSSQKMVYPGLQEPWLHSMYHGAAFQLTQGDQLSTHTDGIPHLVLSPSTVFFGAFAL

[2] = target: human tumor necrosis factor-alpha (hTNFα) (human) (UniProt P01375); assay: cell-based or functional assay
human tumor necrosis factor-alpha (hTNFα) (human), sequence (P01375 77-233): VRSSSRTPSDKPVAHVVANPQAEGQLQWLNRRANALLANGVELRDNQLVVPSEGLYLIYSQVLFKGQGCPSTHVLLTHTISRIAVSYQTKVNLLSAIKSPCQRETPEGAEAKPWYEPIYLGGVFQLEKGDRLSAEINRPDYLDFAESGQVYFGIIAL

Molecule	amount needed for the same inhibition of human TNFβ, against p75P-sf2 [1]	IL-6 secreted by FS-4 fibroblasts, 0.3 ng/ml rhTNF with 4 µg/ml antibody (no antibody: 1.36) [2]	IL-6 secreted by FS-4 fibroblasts, 1.5 ng/ml rhTNF with 4 µg/ml antibody (no antibody: 2.00) [2]	IL-6 secreted by FS-4 fibroblasts, 7.5 ng/ml rhTNF with 4 µg/ml antibody (no antibody: 2.56) [2]
p55-sf2 (p55 TNF receptor/IgG1 heavy chain single fusion with truncated light chain JCK) (from UniProt P19438 3-159) (Fc fusion)	3 fold			
p75-sf2 (complete extracellular domain of p75 fused to the IgG1 heavy chain) (from UniProt P20333 23-257) (Fc fusion)	3 fold			
B1		1.6 ng/mL	1.96 ng/mL	2.16 ng/mL
